Experimental data from publication PMC3967872 (DNA repair, 2014).
Positions count from the first letter of the chain named. Numbers in names are those of the source.

T1: His-tagged full-length S. pombe Apn2 with Asn at position 254 (His-Apn2^N254) (S. pombe, UniProt P87175 1-523)
T1 sequence (looked up): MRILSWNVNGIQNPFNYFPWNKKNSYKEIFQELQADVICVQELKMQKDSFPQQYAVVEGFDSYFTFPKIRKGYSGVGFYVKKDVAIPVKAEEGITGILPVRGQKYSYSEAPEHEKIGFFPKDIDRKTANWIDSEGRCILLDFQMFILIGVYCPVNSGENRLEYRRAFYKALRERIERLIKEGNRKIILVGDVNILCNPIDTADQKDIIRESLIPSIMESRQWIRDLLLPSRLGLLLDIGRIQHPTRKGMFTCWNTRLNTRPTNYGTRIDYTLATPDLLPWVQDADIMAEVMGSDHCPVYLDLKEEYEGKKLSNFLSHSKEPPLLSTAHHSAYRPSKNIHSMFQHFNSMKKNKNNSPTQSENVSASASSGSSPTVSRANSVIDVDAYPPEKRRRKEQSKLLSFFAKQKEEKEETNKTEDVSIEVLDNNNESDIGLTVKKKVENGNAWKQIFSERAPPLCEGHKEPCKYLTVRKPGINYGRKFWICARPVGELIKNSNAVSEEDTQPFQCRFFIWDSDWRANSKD

T2: His-tagged full-length SpApn2^N254/S295, catalytically inactive mutant (His-Apn2^S295) (S. pombe, UniProt P87175 1-523, H295S)
T2 sequence (looked up): T1 sequence (looked up) with H295S

B1: His-tagged full-length S. pombe Apn2 with Ser at position 254 (His-Apn2^S254) (enzyme, UniProt P87175 1-523, looked up)
chain: T1 sequence (looked up) with N254S
B2: GST fusion of S. pombe Myh1(245-461) (domain or fragment, UniProt Q10159 245-461, looked up)
chain: YQEQNVIRDGNTIKYDIEDVPCNICITDIPSKEDLQNWVVARYPVHPAKTKQREERALVVIFQKTDPSTKEKFFLIRKRPSAGLLAGLWDFPTIEFGQESWPKDMDAEFQKSIAQWISNDSRSLIKKYQSRGRYLHIFSHIRKTSHVFYAIASPDIVTNEDFFWISQSDLEHVGMCELGLKNYRAALEIKKRKVTSLSNFKEPKLTSARRIVTKAEC
B3: GST fusion of S. pombe Myh1(I261A) (enzyme, UniProt Q10159 1-461, looked up)
chain: MSDSNHSLDLHSYTQLEVERFRESLIQFYDKTKRILPWRKKECIPPSEDSPLEDWEQPVQRLYEVLVSEIMLQQTRVETVKRYYTKWMETLPTLKSCAEAEYNTQVMPLWSGMGFYTRCKRLHQACQHLAKLHPSEIPRTGDEWAKGIPGVGPYTAGAVLSIAWKQPTGIVDGNVIRVLSRALAIHSDCSKGKANALIWKLANELVDPVRPGDFNQALMELGAITCTPQSPRCSVCPISEICKAYQEQNVIRDGNTIKYDAEDVPCNICITDIPSKEDLQNWVVARYPVHPAKTKQREERALVVIFQKTDPSTKEKFFLIRKRPSAGLLAGLWDFPTIEFGQESWPKDMDAEFQKSIAQWISNDSRSLIKKYQSRGRYLHIFSHIRKTSHVFYAIASPDIVTNEDFFWISQSDLEHVGMCELGLKNYRAALEIKKRKVTSLSNFKEPKLTSARRIVTKAEC
B4: GST fusion of intact wild-type S. pombe Myh1 (GST-Myh1) (enzyme, UniProt Q10159 1-461, looked up)
chain: B3 chain with A261I
B5: His- and maltose binding protein (MBP)-tagged SpApn2 residues 1-303 (His-MBP-Apn2^1-303) (domain or fragment, S. pombe, UniProt P87175 1-303, looked up)
chain: MRILSWNVNGIQNPFNYFPWNKKNSYKEIFQELQADVICVQELKMQKDSFPQQYAVVEGFDSYFTFPKIRKGYSGVGFYVKKDVAIPVKAEEGITGILPVRGQKYSYSEAPEHEKIGFFPKDIDRKTANWIDSEGRCILLDFQMFILIGVYCPVNSGENRLEYRRAFYKALRERIERLIKEGNRKIILVGDVNILCNPIDTADQKDIIRESLIPSIMESRQWIRDLLLPSRLGLLLDIGRIQHPTRKGMFTCWSTRLNTRPTNYGTRIDYTLATPDLLPWVQDADIMAEVMGSDHCPVYLDLK

Experiments:
Test in all cases: pull-down
[1] = biological target: B2
[2] = biological target: T1, His-tagged full-length S. pombe Apn2 …
[3] = biological target: T2, His-tagged full-length …
[4] = biological target: B4

binding result [2] | Binder | further results
– | B1 | fold weaker interaction than intact Myh1 [1]: 2 fold
binds | B2 | –
binds | B3 | –
binds | B4 | binding result [3]: binds
– | B5 | binding result [4]: binds
